Measurements: patent publication US20140087995A1 (published 2014)
Numbered stars: 1 amine (or outer) side, 2 acyl side, 3 side chain; on linkers, the order of the positions; unused ones are H or OH. Bridge positions count the residues as written; N and C are the ends. Side chains are listed from the residue outwards. Ends that are not written are not given here. * marks the point of attachment. C20 diacid = O=C(O)CCCCCCCCCCCCCCCCCCC(=O)*; γGlu = O=C(O)[C@H](CCC(=O)[*:2])N[*:1]; AEEA = NCCOCCOCC(=O)O

Key:
[1] = target: T1, human calcitonin receptor (human, UniProt P30988 25-474); assay: SPA competition on BHK cell membranes, 125I-calcitonin as radioligand (Assay VII)
T1 construct: whole, on cells; Used as cell membranes; also called hCTR; hCT
T1 sequence (looked up): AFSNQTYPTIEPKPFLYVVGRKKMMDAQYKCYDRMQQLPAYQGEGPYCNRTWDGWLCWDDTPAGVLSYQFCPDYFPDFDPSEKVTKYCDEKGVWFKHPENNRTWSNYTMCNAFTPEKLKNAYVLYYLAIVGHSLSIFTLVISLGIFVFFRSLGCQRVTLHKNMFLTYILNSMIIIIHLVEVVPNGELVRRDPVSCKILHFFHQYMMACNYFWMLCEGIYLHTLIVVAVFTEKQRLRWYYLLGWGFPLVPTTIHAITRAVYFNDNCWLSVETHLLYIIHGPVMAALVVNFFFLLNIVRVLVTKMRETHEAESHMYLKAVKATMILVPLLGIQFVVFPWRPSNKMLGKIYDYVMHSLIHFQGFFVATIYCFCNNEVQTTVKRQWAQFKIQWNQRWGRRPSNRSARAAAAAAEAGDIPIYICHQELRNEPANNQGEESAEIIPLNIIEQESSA
Method: Membranes were prepared in the following way; the cells were rinsed with PBS and incubated with Versene for approximately 5 min before harvesting. The cells were flushed with PBS and the cell-suspension was centrifuged for 5 min at 1000 rpm. Cells were homogenized (Ultrathurrax) in a buffer containing 20 mM Na-HEPES and 10 mM EDTA (pH 7.4) and centrifuged at 20.000 rpm for 15 min. The resulting pellet was resuspended, homogenized and centrifuged (20.000 rpm, 15 min) in a buffer containing 20 mM Na-HEPES and 0.1 mM EDTA (pH 7.4, buffer 2). The resulting pellet was resuspended in buffer 2 and protein concentration was measured (BCA protein Assay, Pierce). The homogenate was kept cold during the whole procedure. The membranes were kept at −80° C. until use. Assay was performed in a 384 well Optiplate (PerkinElmer) in a total volume of 40 ul. Membranes were mixed with SPA beads. Final concentration of membranes 35 ng/μL final and Final concentration of SPA beads was 0.05 mg/well. Test-compounds were dissolved in DMSO and further diluted in assay buffer (50 mM Hepes, pH 7.4, 1 mM CaCl2, 5 mM MgCl₂, 0.1% OA and 0.02% Tween20). […] The final mixture was incubated for 120 min with shaking at 400 rpm at 25° C. prior to centrifugation (1500 rpm, 10 min). Samples were analyzed on TopCounter™ (Packard). The […] was calculated using (one site binding competition analysis) GraphPad Prism5 as a measure of receptor affinity.

[2] = target: T1, human calcitonin receptor; assay: ratio of hCTR IC50 to hAmylin-R IC50 (reference: human amylin receptor)
Method: The resulting pellet was resuspended, homogenized and centrifuged (20.000 rpm, 15 min) in a buffer containing 20 mM Na-HEPES and 0.1 mM EDTA (pH 7.4, buffer 2). The resulting pellet was resuspended in buffer 2 and protein concentration was measured (BCA protein Assay, Pierce). The homogenate was kept cold during the whole procedure. The membranes were kept at −80° C. until use. The assay was performed in a 384 well Optiplate (PerkinElmer) in a total volume of 40 ul. Membranes were mixed with SPA beads. Final concentration of membranes 35 ng/μL final and SPA beads was 0.05 mg/well. Test-compounds were dissolved in DMSO and further diluted in assay buffer (50 mM Hepes, pH 7.4, 1 mM CaCl2, 5 mM MgCl₂, 0.1% OA and 0.02% Tween20). […] The final mixture was incubated with shaking at 400 rpm for 120 min at 25° C. prior to centrifugation (1500 rpm, 10 min). Samples were analyzed on TopCounter™ (Packard). The IC₅₀ was calculated using (one site binding competition analysis) GraphPad Prism5 as a measure of receptor affinity.
Membranes were prepared in the following way; the cells were rinsed with PBS and incubated with Versene for approximately 5 min before harvesting. The cells were flushed with PBS and the cell-suspension was centrifuged for 5 min at 1000 rpm. Cells were homogenized (Ultrathurrax) in a buffer containing 20 mM Na-HEPES and 10 mM EDTA (pH 7.4) and centrifuged at 20.000 rpm for 15 min. The resulting pellet was resuspended, homogenized and centrifuged (20.000 rpm, 15 min) in a buffer containing 20 mM Na-HEPES and 0.1 mM EDTA (pH 7.4, buffer 2). The resulting pellet was resuspended in buffer 2 and protein concentration was measured (BCA protein Assay, Pierce). The homogenate was kept cold during the whole procedure. The membranes were kept at −80° C. until use. Assay was performed in a 384 well Optiplate (PerkinElmer) in a total volume of 40 ul. Membranes were mixed with SPA beads.

[3] = target: T2, human amylin 3(a) receptor (human calcitonin receptor co-expressed with RAMP-3) (human, UniProt P30988 25-474; O60896 24-148, limits assumed); assay: cell-based or functional assay
T2 sequence (looked up) 1: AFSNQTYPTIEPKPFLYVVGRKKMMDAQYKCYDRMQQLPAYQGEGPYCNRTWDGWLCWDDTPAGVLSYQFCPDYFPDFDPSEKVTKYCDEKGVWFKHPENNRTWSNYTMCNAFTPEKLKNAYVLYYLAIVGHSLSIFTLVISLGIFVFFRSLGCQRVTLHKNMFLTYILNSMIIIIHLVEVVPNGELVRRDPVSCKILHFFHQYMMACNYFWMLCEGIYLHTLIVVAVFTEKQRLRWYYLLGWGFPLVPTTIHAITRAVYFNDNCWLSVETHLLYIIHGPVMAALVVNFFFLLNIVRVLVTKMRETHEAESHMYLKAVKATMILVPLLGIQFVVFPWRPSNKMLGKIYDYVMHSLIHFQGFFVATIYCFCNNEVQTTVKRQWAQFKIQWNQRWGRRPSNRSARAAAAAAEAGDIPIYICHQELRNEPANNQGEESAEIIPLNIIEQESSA
T2 sequence (looked up) 2: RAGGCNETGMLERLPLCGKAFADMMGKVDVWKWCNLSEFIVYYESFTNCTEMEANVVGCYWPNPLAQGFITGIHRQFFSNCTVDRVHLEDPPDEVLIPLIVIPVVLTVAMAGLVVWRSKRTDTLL

Row | Binder | IC50 [1] [nM] | Ratio hCT/hAmylin binding [2] | Ratio hCT/hAmylin funct. (hCTR EC50 over hAmylin-R EC50) [3] | hAmylin-R funct. EC50 (pM) [3] [pM]
1 | K([AEEA-γGlu-C20 diacid])CNTATCATQRLANFLRHSSPNFGAIPSSTNVGHNTY-NH2 (disulfide 2-7; N-terminus assumed; SMILES CC[C@H](C)[C@H](NC(=O)[C@H](C)NC(=O)CNC(=O)[C@H](Cc1ccccc1)NC(=O)[C@H](CC(N)=O)NC(=O)[C@@H]1CCCN1C(=O)[C@H](CO)NC(=O)[C@H](CO)NC(=O)[C@H](Cc1c[nH]cn1)NC(=O)[C@H](CCCNC(=N)N)NC(=O)[C@H](CC(C)C)NC(=O)[C@H](Cc1ccccc1)NC(=O)[C@H](CC(N)=O)NC(=O)[C@H](C)NC(=O)[C@H](CC(C)C)NC(=O)[C@H](CCCNC(=N)N)NC(=O)[C@H](CCC(N)=O)NC(=O)[C@@H](NC(=O)[C@H](C)NC(=O)[C@@H]1CSSC[C@H](NC(=O)[C@@H](N)CCCCNC(=O)COCCOCCNC(=O)CC[C@H](NC(=O)CCCCCCCCCCCCCCCCCCC(=O)O)C(=O)O)C(=O)N[C@@H](CC(N)=O)C(=O)N[C@@H]([C@@H](C)O)C(=O)N[C@@H](C)C(=O)N[C@@H]([C@@H](C)O)C(=O)N1)[C@@H](C)O)C(=O)N1CCC[C@H]1C(=O)N[C@@H](CO)C(=O)N[C@@H](CO)C(=O)N[C@H](C(=O)N[C@@H](CC(N)=O)C(=O)N[C@H](C(=O)NCC(=O)N[C@@H](Cc1c[nH]cn1)C(=O)N[C@@H](CC(N)=O)C(=O)N[C@H](C(=O)N[C@@H](Cc1ccc(O)cc1)C(N)=O)[C@@H](C)O)C(C)C)[C@@H](C)O, also called compound 76) | 17.2 | 80 |  | 
2 | K([AEEA-C20 diacid])CNTATCATQRLAHFLRHSSPNFGAIPSSTNVGSNTY-NH2 (disulfide 2-7; N-terminus assumed; SMILES CC[C@H](C)[C@H](NC(=O)[C@H](C)NC(=O)CNC(=O)[C@H](Cc1ccccc1)NC(=O)[C@H](CC(N)=O)NC(=O)[C@@H]1CCCN1C(=O)[C@H](CO)NC(=O)[C@H](CO)NC(=O)[C@H](Cc1c[nH]cn1)NC(=O)[C@H](CCCNC(=N)N)NC(=O)[C@H](CC(C)C)NC(=O)[C@H](Cc1ccccc1)NC(=O)[C@H](Cc1c[nH]cn1)NC(=O)[C@H](C)NC(=O)[C@H](CC(C)C)NC(=O)[C@H](CCCNC(=N)N)NC(=O)[C@H](CCC(N)=O)NC(=O)[C@@H](NC(=O)[C@H](C)NC(=O)[C@@H]1CSSC[C@H](NC(=O)[C@@H](N)CCCCNC(=O)COCCOCCNC(=O)CCCCCCCCCCCCCCCCCCC(=O)O)C(=O)N[C@@H](CC(N)=O)C(=O)N[C@@H]([C@@H](C)O)C(=O)N[C@@H](C)C(=O)N[C@@H]([C@@H](C)O)C(=O)N1)[C@@H](C)O)C(=O)N1CCC[C@H]1C(=O)N[C@@H](CO)C(=O)N[C@@H](CO)C(=O)N[C@H](C(=O)N[C@@H](CC(N)=O)C(=O)N[C@H](C(=O)NCC(=O)N[C@@H](CO)C(=O)N[C@@H](CC(N)=O)C(=O)N[C@H](C(=O)N[C@@H](Cc1ccc(O)cc1)C(N)=O)[C@@H](C)O)C(C)C)[C@@H](C)O, also called compound 90) [N^ε1-[2-[2-[2-(19-carboxynonadecanoylamino)ethoxy]ethoxy]acetyl]-[His14,Arg17,Pro21,Pro27]-h-amylin] | 2.57 | 42.2 |  | 

Continued, values first:

Row | IC50 [1] [nM] | Ratio hCT/hAmylin binding [2] | Ratio hCT/hAmylin funct. (hCTR EC50 over hAmylin-R EC50) [3] | hAmylin-R funct. EC50 (pM) [3] [pM] | Binder
3 |  |  | 17 | 116 | K([γGlu-C20 diacid])CNTATCATQRLANFLRHSSPNFGAIPSSTNVGSNTY-NH2 (disulfide 2-7; N-terminus assumed; SMILES CC[C@H](C)[C@H](NC(=O)[C@H](C)NC(=O)CNC(=O)[C@H](Cc1ccccc1)NC(=O)[C@H](CC(N)=O)NC(=O)[C@@H]1CCCN1C(=O)[C@H](CO)NC(=O)[C@H](CO)NC(=O)[C@H](Cc1c[nH]cn1)NC(=O)[C@H](CCCNC(=N)N)NC(=O)[C@H](CC(C)C)NC(=O)[C@H](Cc1ccccc1)NC(=O)[C@H](CC(N)=O)NC(=O)[C@H](C)NC(=O)[C@H](CC(C)C)NC(=O)[C@H](CCCNC(=N)N)NC(=O)[C@H](CCC(N)=O)NC(=O)[C@@H](NC(=O)[C@H](C)NC(=O)[C@@H]1CSSC[C@H](NC(=O)[C@@H](N)CCCCNC(=O)CC[C@H](NC(=O)CCCCCCCCCCCCCCCCCCC(=O)O)C(=O)O)C(=O)N[C@@H](CC(N)=O)C(=O)N[C@@H]([C@@H](C)O)C(=O)N[C@@H](C)C(=O)N[C@@H]([C@@H](C)O)C(=O)N1)[C@@H](C)O)C(=O)N1CCC[C@H]1C(=O)N[C@@H](CO)C(=O)N[C@@H](CO)C(=O)N[C@H](C(=O)N[C@@H](CC(N)=O)C(=O)N[C@H](C(=O)NCC(=O)N[C@@H](CO)C(=O)N[C@@H](CC(N)=O)C(=O)N[C@H](C(=O)N[C@@H](Cc1ccc(O)cc1)C(N)=O)[C@@H](C)O)C(C)C)[C@@H](C)O, also called compound 48) [N^ε1-[(4S)-4-carboxy-4-(19-carboxynonadecanoylamino)butanoyl]-[Arg17,Pro21,Pro27]-h-amylin]
4 |  |  | 17 | 594 | K([AEEA-γGlu-C20 diacid])RCNTATCATQRLANFLRHSSPNFGAIPSSTNVGSHTY-NH2 (disulfide 3-8; N-terminus assumed; SMILES CC[C@H](C)[C@H](NC(=O)[C@H](C)NC(=O)CNC(=O)[C@H](Cc1ccccc1)NC(=O)[C@H](CC(N)=O)NC(=O)[C@@H]1CCCN1C(=O)[C@H](CO)NC(=O)[C@H](CO)NC(=O)[C@H](Cc1c[nH]cn1)NC(=O)[C@H](CCCNC(=N)N)NC(=O)[C@H](CC(C)C)NC(=O)[C@H](Cc1ccccc1)NC(=O)[C@H](CC(N)=O)NC(=O)[C@H](C)NC(=O)[C@H](CC(C)C)NC(=O)[C@H](CCCNC(=N)N)NC(=O)[C@H](CCC(N)=O)NC(=O)[C@@H](NC(=O)[C@H](C)NC(=O)[C@@H]1CSSC[C@H](NC(=O)[C@H](CCCNC(=N)N)NC(=O)[C@@H](N)CCCCNC(=O)COCCOCCNC(=O)CC[C@H](NC(=O)CCCCCCCCCCCCCCCCCCC(=O)O)C(=O)O)C(=O)N[C@@H](CC(N)=O)C(=O)N[C@@H]([C@@H](C)O)C(=O)N[C@@H](C)C(=O)N[C@@H]([C@@H](C)O)C(=O)N1)[C@@H](C)O)C(=O)N1CCC[C@H]1C(=O)N[C@@H](CO)C(=O)N[C@@H](CO)C(=O)N[C@H](C(=O)N[C@@H](CC(N)=O)C(=O)N[C@H](C(=O)NCC(=O)N[C@@H](CO)C(=O)N[C@@H](Cc1c[nH]cn1)C(=O)N[C@H](C(=O)N[C@@H](Cc1ccc(O)cc1)C(N)=O)[C@@H](C)O)C(C)C)[C@@H](C)O, 38 residues; also called compound 45)
